From paper PMC10556141, “Yeast Rad52 is a homodecamer and possesses BRCA2-like bipartite Rad51 binding modes”

What was measured:
Rad52 [1] = molecular target: T1, Rad52 (Saccharomyces cerevisiae, UniProt P06778 1-471); experiment: tryptophan quenching; high affinity site, two-site sequential model; Anisotropy/FRET: 50 mM Tris-acetate pH 7.5, 50 mM KCl, 5 mM MgCl2, 10% glycerol, 1 mM DTT, 0.2 mg/mL BSA, 23 C; stopped flow: 50 mM Tris-acetate pH 7.5, 5 mM Mg; conditions: protein: recombinant; chain copies: 10; single strand
Rad52 [2] = molecular target: T1, Rad52; experiment: tryptophan quenching; lower affinity site, two-site sequential model; Anisotropy/FRET: 50 mM Tris-acetate pH 7.5, 50 mM KCl, 5 mM MgCl2, 10% glycerol, 1 mM DTT, 0.2 mg/mL BSA, 23 C; stopped flow: 50 mM Tris-acetate pH 7.5, 5 mM Mg; conditions: protein: recombinant; chain copies: 10; single strand
Rad52 [3] = molecular target: T1, Rad52; experiment: FRET; steady-state wrapping; Anisotropy/FRET: 50 mM Tris-acetate pH 7.5, 50 mM KCl, 5 mM MgCl2, 10% glycerol, 1 mM DTT, 0.2 mg/mL BSA, 23 C; stopped flow: 50 mM Tris-acetate pH 7.5, 5 mM Mg; conditions: protein: recombinant; chain copies: 10; label: 5'-Cy5, 3'-Cy3; single strand
Rad52ΔC [4] = molecular target: T2, Rad52ΔC (Saccharomyces cerevisiae, UniProt P06778 1-217); experiment: as above; conditions: protein: recombinant; chain copies: 10; label: 5'-Cy5, 3'-Cy3; single strand
Rad51 [5] = molecular target: T3, Rad51 (Saccharomyces cerevisiae, UniProt P25454 1-400); experiment: FRET; outcompetes prebound Rad52 or Rad52ΔC at steady state; Anisotropy/FRET: 50 mM Tris-acetate pH 7.5, 50 mM KCl, 5 mM MgCl2, 10% glycerol, 1 mM DTT, 0.2 mg/mL BSA, 23 C; stopped flow: 50 mM Tris-acetate pH 7.5, 5 mM Mg; conditions: protein: recombinant; label: 5'-Cy5, 3'-Cy3; single strand
Rad52 [6] = molecular target: T1, Rad52; experiment: fluorescence anisotropy; preformed complex, reversible; Anisotropy/FRET: 50 mM Tris-acetate pH 7.5, 50 mM KCl, 5 mM MgCl2, 10% glycerol, 1 mM DTT, 0.2 mg/mL BSA, 23 C; stopped flow: 50 mM Tris-acetate pH 7.5, 5 mM Mg; conditions: protein: recombinant; chain copies: 10; label: 5'-FAM; single strand
Rad52 [7] = molecular target: T1, Rad52; experiment: competition; competes with FAM-(dT)70; Anisotropy/FRET: 50 mM Tris-acetate pH 7.5, 50 mM KCl, 5 mM MgCl2, 10% glycerol, 1 mM DTT, 0.2 mg/mL BSA, 23 C; stopped flow: 50 mM Tris-acetate pH 7.5, 5 mM Mg; conditions: protein: recombinant; chain copies: 10; single strand
Rad52 [8] = molecular target: T1, Rad52; experiment: FRET; 45 nt sufficient to capture FRET; Anisotropy/FRET: 50 mM Tris-acetate pH 7.5, 50 mM KCl, 5 mM MgCl2, 10% glycerol, 1 mM DTT, 0.2 mg/mL BSA, 23 C; stopped flow: 50 mM Tris-acetate pH 7.5, 5 mM Mg; conditions: protein: recombinant; chain copies: 10; label: 5'-Cy5, 3'-Cy3; single strand
Rad52ΔC [9] = molecular target: T2, Rad52ΔC; experiment: AUC sedimentation velocity; Anisotropy/FRET: 50 mM Tris-acetate pH 7.5, 50 mM KCl, 5 mM MgCl2, 10% glycerol, 1 mM DTT, 0.2 mg/mL BSA, 23 C; stopped flow: 50 mM Tris-acetate pH 7.5, 5 mM Mg; conditions: protein: recombinant; chain copies: 10; single strand
Rad52 [10] = molecular target: T1, Rad52; experiment: AUC sedimentation velocity; 1:1 decamer:DNA; Anisotropy/FRET: 50 mM Tris-acetate pH 7.5, 50 mM KCl, 5 mM MgCl2, 10% glycerol, 1 mM DTT, 0.2 mg/mL BSA, 23 C; stopped flow: 50 mM Tris-acetate pH 7.5, 5 mM Mg; conditions: protein: recombinant; chain copies: 10; single strand
Rad52 [11] = molecular target: T1, Rad52; experiment: tryptophan quenching; profile similar to (dT)84; Anisotropy/FRET: 50 mM Tris-acetate pH 7.5, 50 mM KCl, 5 mM MgCl2, 10% glycerol, 1 mM DTT, 0.2 mg/mL BSA, 23 C; stopped flow: 50 mM Tris-acetate pH 7.5, 5 mM Mg; conditions: protein: recombinant; chain copies: 10; single strand
Rad52 [12] = molecular target: T1, Rad52; experiment: fluorescence anisotropy; stoichiometric, too tight to fit; Anisotropy/FRET: 50 mM Tris-acetate pH 7.5, 50 mM KCl, 5 mM MgCl2, 10% glycerol, 1 mM DTT, 0.2 mg/mL BSA, 23 C; stopped flow: 50 mM Tris-acetate pH 7.5, 5 mM Mg; conditions: protein: recombinant; chain copies: 10; label: 5'-FAM; single strand
Rad52ΔC [13] = molecular target: T2, Rad52ΔC; experiment: as above; conditions: protein: recombinant; chain copies: 10; label: 5'-FAM; single strand
Rad52 [14] = molecular target: T1, Rad52; experiment: stopped-flow FRET; Anisotropy/FRET: 50 mM Tris-acetate pH 7.5, 50 mM KCl, 5 mM MgCl2, 10% glycerol, 1 mM DTT, 0.2 mg/mL BSA, 23 C; stopped flow: 50 mM Tris-acetate pH 7.5, 5 mM Mg; conditions: protein: recombinant; chain copies: 10; label: 5'-Cy5, 3'-Cy3; single strand
Rad52ΔC [15] = molecular target: T2, Rad52ΔC; experiment: as above; conditions: protein: recombinant; chain copies: 10; label: 5'-Cy5, 3'-Cy3; single strand
Rad51 [16] = molecular target: T3, Rad51; experiment: stopped-flow FRET; ATP; filament on Rad52-prebound DNA; Anisotropy/FRET: 50 mM Tris-acetate pH 7.5, 50 mM KCl, 5 mM MgCl2, 10% glycerol, 1 mM DTT, 0.2 mg/mL BSA, 23 C; stopped flow: 50 mM Tris-acetate pH 7.5, 5 mM Mg; conditions: protein: recombinant; label: 5'-Cy5, 3'-Cy3; single strand

B1: (dT)84 (ssDNA)
DNA: TTTTTTTTTTTTTTTTTTTTTTTTTTTTTTTTTTTTTTTTTTTTTTTTTTTTTTTTTTTTTTTTTTTTTTTTTTTTTTTTTTTT
- Kd (Rad52 [1]): 0.0013 nM
- Kd (Rad52 [2]): 28 nM

B2: Cy5-(dT)80-Cy3 (ssDNA)
DNA: TTTTTTTTTTTTTTTTTTTTTTTTTTTTTTTTTTTTTTTTTTTTTTTTTTTTTTTTTTTTTTTTTTTTTTTTTTTTTTTT
- binding result (Rad52 [3]): binds
- binding result (Rad52ΔC [4]): binds
- binding result (Rad51 [5]): binds

B3: FAM-(dT)70 (ssDNA)
DNA: TTTTTTTTTTTTTTTTTTTTTTTTTTTTTTTTTTTTTTTTTTTTTTTTTTTTTTTTTTTTTTTTTTTTTT
- binding result (Rad52 [6]): binds

B4: (dT)70 unlabeled (ssDNA)
DNA: B3 DNA
- binding result (Rad52 [7]): binds

Binder: TTTTTTTTTTTTTTTTTTTTTTTTTTTTTTTTTTTTTTTTTTTTT (ssDNA) [Cy5-(dT)45-Cy3]
- binding result (Rad52 [8]): binds

Binder: TTTTTTTTTTTTTTTTTTTTTTTTTTTTTTTTTTTTTTTTTTTTT (ssDNA) [(dT)45]
- binding result (Rad52ΔC [9]): binds
- binding result (Rad52 [10]): binds

B5: (dT)54 (ssDNA)
DNA: TTTTTTTTTTTTTTTTTTTTTTTTTTTTTTTTTTTTTTTTTTTTTTTTTTTTTT
- binding result (Rad52 [11]): binds

Binder: TTTTTTTTTTTTTTTTTTTTTTTTTTTTTTTTTTT (ssDNA) [FAM-(dT)35]
- binding result (Rad52 [12]): binds
- binding result (Rad52ΔC [13]): binds

B6: Cy5-(dT)97-Cy3 (ssDNA)
DNA: TTTTTTTTTTTTTTTTTTTTTTTTTTTTTTTTTTTTTTTTTTTTTTTTTTTTTTTTTTTTTTTTTTTTTTTTTTTTTTTTTTTTTTTTTTTTTTTTT
- binding result (Rad52 [14]): binds
- binding result (Rad52ΔC [15]): binds
- binding result (Rad51 [16]): binds

B7: (dT)97 (ssDNA)
DNA: B6 DNA
- binding result (Rad52ΔC [9]): binds
- binding result (Rad52 [10]): binds
